# T1: GST-MtTRC-1-DBD (Myceliophthora thermophila ATCC 42464) (UniProt G2Q031)
# T1 sequence: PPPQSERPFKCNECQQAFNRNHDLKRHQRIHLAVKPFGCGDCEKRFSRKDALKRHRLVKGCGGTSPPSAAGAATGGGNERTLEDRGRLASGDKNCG
# T2: GST-MtTRC-1-DBD (Myceliophthora thermophila ATCC 42464, UniProt G2Q031 355-450)
# T2 sequence: T1 sequence
# B1: Mthac-1-P7-FP-M4 (dsDNA)
# DNA 1: GATGTGTTTTACAATCGTTCTATTTATTCATTGCTTGACTTGTGGG
# DNA 2: CCCACAAGTCAAGCAATGAATAAATAGAACGATTGTAAAACACATC
# Legend:
# [1] = biological target: T1, GST-MtTRC-1-DBD (Myceliophthora thermophila ATCC 42464); experiment: EMSA; conditions: EMSA: 20 mM Tris-base pH 7.5, 20 mM KCl, 10 mM MgCl2, 2 mM DTT, 0.5 ug/uL BSA, 0.2 mg/mL fish sperm DNA, 5% glycerol, 25 C 30 min, 10 ng probe; gel 5% PAGE …
# [2] = biological target: T2, GST-MtTRC-1-DBD; experiment: EMSA; EMSA: 20 mM Tris-base pH 7.5, 20 mM KCl, 10 mM MgCl2, 2 mM DTT, 0.5 ug/uL BSA, 0.2 mg/mL fish sperm DNA, 5% glycerol, 25 C 30 min, 10 ng probe; gel 5% PAGE 0.5x TBE 4 C. Footprinting: 400 ng probe in 40 uL, 25 C 30 min; conditions: protein: recombinant; tags: GST (N-terminal, pGEX-4T-1); label: Cy5
Molecule,binding [1],binding result [2]
TTTGCACCATGGAACCTGTGCCCAAAGAACCAAAGAACGCTATTCGCACATATTGCGAATCAGTTGCCAGTGATAGGGGGCGGGGACAGAACCCAAGCCGAGACATACTGTACAACCCAGCGGGTTGTCAATTGCACGCTACATGGTGTAATTTGTATTCCGGACGCACATCATTTCGCAGTTAAGGTTGTGCCCGCTTTTCTGCACTGCCGCTTTGGCGTCTCTTTTTTTTTTTTTTTACGAAGGCTTGCAAGGCGACGTCTTACGCGGTCGGACTTGAATCAGACA (double strand) [Mthac-1-P3],binds,
B1,,no binding
